Target: T1, GFP-PSD-95 (green fluorescent protein-tagged postsynaptic density-95) (UniProt P31016 1-724)
T1 construct: postsynaptic density-95 (PSD-95); Printed as GFP-PSD-95 in the results and PSD-95-GFP in the methods; also called PSD-95-GFP; source: HEK293T, transfected, in lysate
Test: co-IP; HEK293T cells cotransfected with HA-Prickle2 and GFP-PSD-95, with or without FLAG-Vangl2 WT or ΔETSV; IP of the lysate with α-GFP Abs, western blot; 1% NP-40, 150 mM NaCl, 50 mM Tris-Cl pH 7.5, 2 mM EDTA, 10% glycerol, on ice or at 4 °C; precipitated Prickle2 (IP/Input) divided by the relative amount of precipitated PSD-95-GFP
Conditions: partners not purified

T1 sequence (P31016 whole entry): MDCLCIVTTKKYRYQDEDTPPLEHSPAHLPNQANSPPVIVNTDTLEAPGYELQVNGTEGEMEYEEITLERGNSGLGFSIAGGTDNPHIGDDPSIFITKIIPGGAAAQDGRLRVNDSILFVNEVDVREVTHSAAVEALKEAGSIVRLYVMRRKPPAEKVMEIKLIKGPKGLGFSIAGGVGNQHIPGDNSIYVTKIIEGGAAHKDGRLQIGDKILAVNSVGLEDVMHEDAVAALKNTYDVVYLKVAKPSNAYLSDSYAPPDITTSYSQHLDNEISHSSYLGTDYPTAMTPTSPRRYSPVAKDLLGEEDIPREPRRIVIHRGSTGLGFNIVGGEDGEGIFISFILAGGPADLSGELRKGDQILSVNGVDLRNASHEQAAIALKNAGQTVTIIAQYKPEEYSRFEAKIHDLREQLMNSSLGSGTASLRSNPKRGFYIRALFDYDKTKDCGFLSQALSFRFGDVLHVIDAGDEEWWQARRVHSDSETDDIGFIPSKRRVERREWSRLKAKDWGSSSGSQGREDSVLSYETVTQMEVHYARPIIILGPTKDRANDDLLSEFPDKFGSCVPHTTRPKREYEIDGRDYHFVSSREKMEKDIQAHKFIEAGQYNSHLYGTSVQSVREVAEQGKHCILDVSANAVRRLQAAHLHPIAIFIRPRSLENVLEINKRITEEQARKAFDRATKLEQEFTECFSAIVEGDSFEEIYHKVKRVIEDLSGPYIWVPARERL

B1: hemagglutinin (HA)-Prickle2 (natural protein, UniProt Q80Y24 1-845, looked up)
chain: MVTVMPLEMEKTISKLMFDFQRSSTSDDDSGCALEEYAWVPPGLKPEQVHQYYSCLPEEKVPYVNSAGEKLRIKQLLHQLPPHDNEVRYCNSLDEEEKRELKLFSNQRKRENLGRGNVRPFPVTMTGAICEQCGGQIKGGDIAVFASRAGHGICWHPPCFVCTVCNELLVDLIYFYQDGKIYCGRHHAECLKPRCAACDEIIFADECTEAEGRHWHMRHFCCFECETVLGGQRYIMKEGRPYCCHCFESLYAEYCDTCAQHIGIDQGQMTYDGQHWHATETCFCCAHCKKSLLGRPFLPKQGQIFCSRACSAGEDPNGSDSSDSAFQNARAKESRRSAKIGKNKGKTEEAMLNQHSQLQVSSNRLSADVDPLSVQMDLLSLSSQTPSLNRDPIWRSREEPFHYGNKMEQNQSQSPLQLLSQCNIRTSYSPGGQGAGAQPDMWAKHFSNPKRSSSMALKGHGGSFIQECREDYYPGRLMSQESYSDMSSQSFNETRGSIPVPKYEEEEEEEEGGISTQQCRPRRPLSSLKYTEDMTPTEQTPRGSMESLALSNATGLSAEGGAKRQEHLSRFSMPDLSKDSGMNVSEKLSNMGTLNSSMQFRSAESVRSLLSAQQYQEMEGNLHQLSNPLGYRDLQSHGRMHQSFDFDGGIASSKLPGQEGVHIQPMSERTRRRTTSRDDNRRFRPHRSRRSRRSRSDNALHLASEREVIARLKERPPLRAREDYDQFMRQRSFQESLGQGSRRDLYSQCPRTVSDLALQNAFGERWGPYFTEYDWCSTCSSSSESDNEGYFLGEPIPQPARLRYVTSDELLHKYSSYGVPKSSTLGGRGQLHSRKRQKSKNCIIS
notes: Prickle2; source: HEK293T, transfected, in lysate
Q: B1 was tested. Which “fold increase of the precipitated amount of Prickle2 with FLAG-Vangl2 co-expressed, against without Vangl2” value did it give?
A: 63.6 fold

Reference: article PMC4530445, “PDZ interaction of Vangl2 links PSD-95 and Prickle2 but plays only a limited role in the synaptic localisation of Vangl2” (Scientific Reports, 2015)
